# Results taken from the supplement of paper PMC10899765.
# Test system: MCF10A
# Assay: percent viability (nuclei count relative to siNT); higher = more viable cells
# Conditions: 20 nM; 72 h
# Description: (§1)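 After 72 h, cells were fixed and stained with Hoechst and anti-fibrillarin, and nucleoli per nucleus were counted with CellProfiler. Values are plate-adjusted percent effect for the one-nucleolus and 5+ nucleoli phenotypes, normalised to siNT (0%) and to the positive controls siNOL11 or siKIF11 (100%), as the mean of biological triplicates. Percent viability is the nuclei count relative to siNT.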
row,Sequence,percent viability
1,CAGAGUGACAAGCUGGUUAAAG [hsa-miR-5586-3p],98.4%
2,CCUCGGUACUGGAAAGGGGUA [hsa-miR-8088],108%
3,AAAACUGCAGUUACUUUUGC [hsa-miR-548av-3p],83.1%
4,UCUUGGAGUAGGUCAUUGGGUGG [hsa-miR-432-5p],34.1%
5,CAGUGCAAUGUUUUCCUU [hsa-miR-4295],78.5%
6,GUACCUUCUGGUUCAGCUAGU [hsa-miR-4724-3p],82.8%
7,GGGACUAGGAUGCAGACCUCC [hsa-miR-6503-3p],49.8%
8,UGAGAGUGGAAUUCACAGUAUUU [hsa-miR-4693-3p],23%
9,GUCCACUUCUGCCUGCCCUGCC [hsa-miR-4436b-5p],51.1%
10,CUCGGGGCAGGCGGCUGGGAGCG [hsa-miR-6727-5p],74.2%
11,UGGGAGAGCAGGGUAUUGUGGA [hsa-miR-6731-5p],6.77%
12,AAGUGCCUCCUUUUAGAGUGUU [hsa-miR-519e-3p],40.9%
13,UCGGCUCUCUCCCUCACCCUAG [hsa-miR-6741-3p],33.2%
14,AGAACUCUUGCAGUCUUAGAUGU [hsa-miR-4680-5p],72%
15,CCUGGAAACACUGAGGUUGUG [hsa-miR-875-3p],155%
16,UUGUGUGAGUACAGAGAGCAUC [hsa-miR-6818-5p],17.1%
17,UGUGUCCGGGAAGUGGAGGAGG [hsa-miR-4669],74.6%
18,GUAGGGGAGGUUGGGCCAGGGA [hsa-miR-6824-5p],78.1%
19,UGCUUCCUUUCUCAGCUG [hsa-miR-7162-5p],64.9%
20,UUGGGAUGGUAGGACCAGAGGGG [hsa-miR-6728-5p],50.3%
21,UAAUGCCCCUAAAAAUCCUUAU [hsa-miR-365a-3p],89.5%
22,CUUGGCACCUAGCAAGCACUCA [hsa-miR-1271-5p],91.1%
23,AAAGUGCAUCCUUUUAGAGGUU [hsa-miR-519b-3p],104%
24,AUUGCCUCUGUUCUAACACAAG [hsa-miR-3152-5p],129%

# Test system: MCF10A
# Assay: one-nucleolus phenotype percent effect (relative to siNT 0% and siNOL11 100%); higher = more cells with one nucleolus (ribosome biogenesis inhibition)
# Conditions: 20 nM; 72 h
# Description: as §1
row,Sequence,one-nucleolus phenotype percent effect
1,CAGAGUGACAAGCUGGUUAAAG [hsa-miR-5586-3p],-14.6%
2,CCUCGGUACUGGAAAGGGGUA [hsa-miR-8088],-9.43%
3,AAAACUGCAGUUACUUUUGC [hsa-miR-548av-3p],-20.6%
4,UCUUGGAGUAGGUCAUUGGGUGG [hsa-miR-432-5p],28.2%
5,CAGUGCAAUGUUUUCCUU [hsa-miR-4295],-33%
6,GUACCUUCUGGUUCAGCUAGU [hsa-miR-4724-3p],-22.1%
7,GGGACUAGGAUGCAGACCUCC [hsa-miR-6503-3p],9.94%
8,UGAGAGUGGAAUUCACAGUAUUU [hsa-miR-4693-3p],35.2%
9,GUCCACUUCUGCCUGCCCUGCC [hsa-miR-4436b-5p],-10.1%
10,CUCGGGGCAGGCGGCUGGGAGCG [hsa-miR-6727-5p],-15.9%
11,UGGGAGAGCAGGGUAUUGUGGA [hsa-miR-6731-5p],43%
12,AAGUGCCUCCUUUUAGAGUGUU [hsa-miR-519e-3p],-10.9%
13,UCGGCUCUCUCCCUCACCCUAG [hsa-miR-6741-3p],9.37%
14,AGAACUCUUGCAGUCUUAGAUGU [hsa-miR-4680-5p],-11.5%
15,CCUGGAAACACUGAGGUUGUG [hsa-miR-875-3p],-26.1%
16,UUGUGUGAGUACAGAGAGCAUC [hsa-miR-6818-5p],66.1%
17,UGUGUCCGGGAAGUGGAGGAGG [hsa-miR-4669],2.82%
18,GUAGGGGAGGUUGGGCCAGGGA [hsa-miR-6824-5p],-25.3%
19,UGCUUCCUUUCUCAGCUG [hsa-miR-7162-5p],0.399%
20,UUGGGAUGGUAGGACCAGAGGGG [hsa-miR-6728-5p],-15.8%
21,UAAUGCCCCUAAAAAUCCUUAU [hsa-miR-365a-3p],2.74%
22,CUUGGCACCUAGCAAGCACUCA [hsa-miR-1271-5p],-2.87%
23,AAAGUGCAUCCUUUUAGAGGUU [hsa-miR-519b-3p],-24%
24,AUUGCCUCUGUUCUAACACAAG [hsa-miR-3152-5p],-11.4%

# Test system: MCF10A
# Assay: 5+ nucleoli phenotype percent effect (relative to siNT 0% and siKIF11 100%); higher = more cells with five or more nucleoli
# Conditions: 20 nM; 72 h
# Description: as §1
row,Sequence,5+ nucleoli phenotype percent effect
1,CAGAGUGACAAGCUGGUUAAAG [hsa-miR-5586-3p],27.8%
2,CCUCGGUACUGGAAAGGGGUA [hsa-miR-8088],15.8%
3,AAAACUGCAGUUACUUUUGC [hsa-miR-548av-3p],35.1%
4,UCUUGGAGUAGGUCAUUGGGUGG [hsa-miR-432-5p],-33.5%
5,CAGUGCAAUGUUUUCCUU [hsa-miR-4295],97.9%
6,GUACCUUCUGGUUCAGCUAGU [hsa-miR-4724-3p],19.8%
7,GGGACUAGGAUGCAGACCUCC [hsa-miR-6503-3p],-6.73%
8,UGAGAGUGGAAUUCACAGUAUUU [hsa-miR-4693-3p],-31.4%
9,GUCCACUUCUGCCUGCCCUGCC [hsa-miR-4436b-5p],-0.992%
10,CUCGGGGCAGGCGGCUGGGAGCG [hsa-miR-6727-5p],19.5%
11,UGGGAGAGCAGGGUAUUGUGGA [hsa-miR-6731-5p],-22.2%
12,AAGUGCCUCCUUUUAGAGUGUU [hsa-miR-519e-3p],-1.33%
13,UCGGCUCUCUCCCUCACCCUAG [hsa-miR-6741-3p],-4.11%
14,AGAACUCUUGCAGUCUUAGAUGU [hsa-miR-4680-5p],-12.8%
15,CCUGGAAACACUGAGGUUGUG [hsa-miR-875-3p],37.4%
16,UUGUGUGAGUACAGAGAGCAUC [hsa-miR-6818-5p],-31.6%
17,UGUGUCCGGGAAGUGGAGGAGG [hsa-miR-4669],-24.1%
18,GUAGGGGAGGUUGGGCCAGGGA [hsa-miR-6824-5p],39.2%
19,UGCUUCCUUUCUCAGCUG [hsa-miR-7162-5p],-13.8%
20,UUGGGAUGGUAGGACCAGAGGGG [hsa-miR-6728-5p],24.3%
21,UAAUGCCCCUAAAAAUCCUUAU [hsa-miR-365a-3p],6.01%
22,CUUGGCACCUAGCAAGCACUCA [hsa-miR-1271-5p],68.8%
23,AAAGUGCAUCCUUUUAGAGGUU [hsa-miR-519b-3p],75.9%
24,AUUGCCUCUGUUCUAACACAAG [hsa-miR-3152-5p],38.3%
